PMC5389482

System: ParF (plasmid TP228 (segregation module))
Test: fluorescence polarization
Details: 5 mM ATP, 5 mM Mg acetate, 150 mM K glutamate; 150 mM potassium glutamate (50-350 mM in salt series), pH 7.5, 5 mM magnesium acetate, 5 mM ATP or ADP, 25 C, 1 nM DNA

AATTACTCAATTACTCAATT (double strand) [20-mer]
Kd: 156 nM
